Source: the supplement of paper PMC10126150
± gives the standard deviation of the averaged measurements.

System: ATP
Experiment: switch fluorescence ratio, 500 uM ATP over buffer (Cy3 cluster intensity, sum of 5 cycles each) (fold (ratio)); higher = stronger signal-on switching upon ATP binding; sequences stand for … in TCGTCGGCAGCGTCAGATGTGTATAAGAGACAGTTTTTTTTTTTTTTTTTTTTTTTTT…TC
Conditions: aptamer strand: ATP DNA aptamer (quencher-CACCTGGGGGAGTATTGCGGAGGAAGG + anchor), 100 nM annealed; ATP concentration: 500 uM
How it was run: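 Switching-strand clusters labelled with Cy3 on a modified Illumina MiSeq flow-cell were annealed to 100 nM quencher-labelled ATP aptamer, imaged in selection buffer, and re-imaged after 15 min with 500 uM ATP at 22 °C. This was done over five cycles with NaOH stripping and re-annealing in between. The fluorescence ratio is summed target-cycle over summed buffer-cycle Cy3 intensity per cluster, averaged per switch-domain sequence, excluding clusters outside 100-1000 RFU.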
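Note: ATP exposure 15 min at 22 °C before imaging.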

Row | Sequence | switch fluorescence ratio
1 | CAACGGGCCA | 1.01 ± 0.029
2 | CAACGGGGGG | 0.998 ± 0.029
3 | CAACGTATTT | 1.113 ± 0.002
4 | CAACTAAGTT | 0.988 ± 0.036
5 | CAACTAGTGG | 0.978 ± 0.037
6 | CAACTTGGGA | 1.05 ± 0.015
7 | CAAGAACGTT | 0.997 ± 0.018
8 | CAAGAATGCG | 1 ± 0.034
9 | CAAGAATTTG | 0.9816 ± 0.0097
10 | CAAGAGGGTT | 0.99 ± 0.032
11 | CAAGAGTGTG | 0.98 ± 0.032
12 | CAAGATTCTT | 0.975 ± 0.056
13 | CAAGATTGCC | 1 ± 0.034
14 | CAAGCAAATT | 1.042 ± 0.0039
15 | CAAGCAGGCA | 0.9935 ± 0.0067
16 | CAAGCATCGC | 0.94962 ± 2.2e-05
17 | CAAGCGGGGG | 1.01 ± 0.05
18 | CAAGCTATCA | 1.026 ± 0.002
19 | CAAGGACATA | 1.07 ± 0.038
20 | CAAGGACGTT | 0.997 ± 0.02
21 | CAAGGACTGG | 0.997 ± 0.032
22 | CAAGGATTTT | 0.9929 ± 0.0012

Row | Sequence | switch fluorescence ratio
23 | CAAGGCTACG | 1.06 ± 0.04
24 | CAAGGGAAGT | 0.978 ± 0.017
25 | CAAGGGATTT | 0.982 ± 0.036
26 | CAAGGGGCAG | 1.009 ± 0.0057
27 | CAAGGGGCGT | 1.01 ± 0.035
28 | CAAGGGGGCG | 0.994 ± 0.048
29 | CAAGGGGGGA | 1.01 ± 0.023
30 | CAAGGGGGTT | 1.02 ± 0.05
31 | CAAGGGTTGC | 0.987 ± 0.056
32 | CAAGGTATTG | 0.987 ± 0.017
33 | CAAGGTGGGG | 1.03 ± 0.0038
34 | CAAGGTGTGT | 1.01 ± 0.043
35 | CAAGGTTGAA | 0.9902 ± 0.0079
36 | CAAGTAATTG | 1.025 ± 0.0088
37 | CAAGTGAGGG | 1.04 ± 0.015
38 | CAAGTGCAGA | 1.052 ± 0.0078
39 | CAAGTTATAA | 0.994 ± 0.023
40 | CAAGTTGATG | 0.982 ± 0.057
41 | CAATAACTGG | 1.01 ± 0.015
42 | CAATACCTAT | 1.05 ± 0.022
43 | CAATACGGGG | 1.13 ± 0.085
44 | CAATACTACT | 1.361 ± 0.01

Row | Sequence | switch fluorescence ratio
45 | CAATAGTTGG | 0.993 ± 0.01
46 | CAATATGCCG | 0.968 ± 0.026
47 | CAATATGTGT | 0.986 ± 0.036
48 | CAATATGTTG | 1.02 ± 0.035
49 | CAATATTACA | 1.05 ± 0.016
50 | CAATCATGTC | 1.04 ± 0.05
51 | CAATCCTATC | 1.02 ± 0.034
52 | CAATCGTAAA | 1.01 ± 0.02
53 | CAATGACACT | 1.04 ± 0.044
54 | CAATGAGAGA | 0.9792 ± 0.0083
55 | CAATGCAGCA | 0.976 ± 0.021
56 | CAATGCAGGG | 1.03 ± 0.014
57 | CAATGCGGAG | 1 ± 0.015
58 | CAATGGACGT | 0.99 ± 0.029
59 | CAATGGGATA | 1.02 ± 0.032
60 | CAATGGGGGT | 1 ± 0.038
61 | CAATGGGTAG | 0.9989 ± 0.0018
62 | CAATGTCACC | 1.06 ± 0.019
63 | CAATGTGGGT | 0.986 ± 0.0086
64 | CAATGTGTCG | 1.07 ± 0.055
65 | CAATGTGTCT | 1 ± 0.033
66 | CAATGTTAGA | 1 ± 0.014

Row | Sequence | switch fluorescence ratio
67 | CAATGTTCGA | 0.981 ± 0.01
68 | CAATTACTTT | 1.06 ± 0.026
69 | CAATTATTCG | 1.04 ± 0.052
70 | CAATTCACCG | 1.04 ± 0.022
71 | CAATTCAGGA | 1.01 ± 0.036
72 | CAATTGGGTT | 0.985 ± 0.025
73 | CAATTTGTCT | 1.01 ± 0.028
74 | CAATTTGTGC | 1.02 ± 0.1
75 | CACAAAATAG | 1.45 ± 0.49
76 | CACAGTTTGC | 1.02 ± 0.026
77 | CACATATTCC | 1.14 ± 0.035
78 | CACATTATTC | 1.04 ± 0.033
79 | CACATTTAGG | 0.978 ± 0.032
80 | CACATTTGGA | 0.985 ± 0.051
81 | CACCAATAGC | 1.31 ± 0.059
82 | CACCACGTGG | 1.01 ± 0.018
83 | CACCAGTCAA | 1.56 ± 0.33
84 | CACCATTAGT | 0.9802 ± 0.0079
85 | CACCCTGGTG | 4.51 ± 0.57
